Values of other authors as cited in PMC6596353.

Molecular target: ST2 (Homo sapiens) (UniProt Q01638)
Chain of UniProt Q01638 (Q01638 19-556): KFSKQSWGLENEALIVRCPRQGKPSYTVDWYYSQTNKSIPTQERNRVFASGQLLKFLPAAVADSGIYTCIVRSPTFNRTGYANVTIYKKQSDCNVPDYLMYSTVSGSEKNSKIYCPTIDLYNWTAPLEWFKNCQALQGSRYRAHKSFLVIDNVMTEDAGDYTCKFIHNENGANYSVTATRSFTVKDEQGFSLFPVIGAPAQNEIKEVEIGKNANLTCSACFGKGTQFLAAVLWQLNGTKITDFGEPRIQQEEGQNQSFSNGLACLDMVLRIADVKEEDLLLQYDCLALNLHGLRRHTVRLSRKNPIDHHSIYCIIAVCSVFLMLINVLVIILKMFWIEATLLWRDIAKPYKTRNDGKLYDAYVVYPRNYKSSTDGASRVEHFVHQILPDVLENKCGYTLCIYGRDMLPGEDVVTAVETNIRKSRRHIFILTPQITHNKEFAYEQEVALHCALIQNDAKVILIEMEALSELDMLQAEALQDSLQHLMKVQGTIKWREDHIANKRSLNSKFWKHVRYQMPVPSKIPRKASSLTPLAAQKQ

For IL-33 (from UniProt O95760), the Kd is given as 0.45 nM.
